Measured values from paper PMC8785239.

Molecular target: fluorescein-labeled sulfopeptide
Assay: fluorescence polarisation

Substance | fold improvement in affinity over SH2-wt [fold] | fold improvement in affinity for sulfopeptide over phosphopeptide [fold]
SH2-E38P (domain or fragment) | 17 | –
SH2-S37H (domain or fragment) | – | 1.4
SH2-S37H/E38P (domain or fragment) | – | 6.6
SH2-T39F (domain or fragment) | > 35 | –
